# Assay: yeast display, Sf9 membrane polyspecificity reagent, FACS + sequencing; frameworks hold sequencing errors
# Procedure, shortened: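 In a synthetic yeast display library (Saccharomyces cerevisiae BJ5465), nanobody expression was induced with galactose for 36–48 hours. FACS gates were set low and high (top ~1%) using anti-HA fluorescence for expression and streptavidin fluorescence for binding of the Sf9 membrane reagent. Each polyreactivity label is drawn from the gate of origin.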
row,Sequence,polyreactivity (PSR sort gate)
1,QVQLVESGGGLLQAGGSLRLSCAASGRTLGIYAMGWYRQAPWKERELVAAITLSGSDTYYADSVKGRFTISRDNAKNTVYLQMNSLKPEDTAVYDCAAKTYGGYGKYGYWGQGTQVTVSS,low polyreactivity
2,QVQLVESGGGLLQAGGSLRLSCAASGSTFNKYTMGWYIKAPGKERELVAAITSGDSTYYADSVKGRFTISRDNAKYTVYLQMNSLKTEDTAVYYCAKSLRAYRHVIYGKPFYSWGQGTQVTVSS,low polyreactivity
3,QVQLVESGGGLLQAGGSLRLSCAASGSTFYDNAMGWYRQAPGKERELVAAISYSGASTYYADSVKGRFTISRDNEKNTVYLQMNSLKPEDTAVYYCAKTFYSLYWGQGTQVTGSS,low polyreactivity
4,QVQLVESGGGLLQAGGSLRLSCAASGSTFYKYAMGWYRHAPRKERELVASISRSGRSTYYADSVKGRFTISRDNAKNTVYLQMNSLKPEDTAVYYCAATWRQHPGSMGYWGQGTQVTVSS,high polyreactivity
5,QVQLVESGGGLLQAGGSLRLSCAASGSTYIGNAMGWYRQAPGKERELVAAITSGGSTNYADSVKGRFTISRDNAKNTVYLQKNSLKPEDTAVYYCAKPSRWGWTGFYAYDYWGQGTQVTVSS,low polyreactivity
6,QVQLVESGGGLLQAGGSLRLSCASSGRTFARYVMGWYRQAPGKERELVAAITRSGGSTYYADSVKGRFTISRDNAKNTVYLQMNSMKPEDTAVYYCAATLRWGLYNTFYSTFNVSYYYWGQGTQVTVSS,high polyreactivity
7,QVQLVESGGGLLQAGGSLRLSFAASGFTFGRYAMGWYRQAPGKERELVAAISTSGGRTYYADSVKGRFTISRDNAKNTVYLQMNSLKPEDTAVYYCAAEQRRFTGYDYWGQGTQVTVSS,high polyreactivity
8,QVQLVESGGGLLQAGGSLRVSCAASGSIIFFYAMGWYRQAPGKERELVAAISKSPSSTYYADSVKGRFTISRDNAKNTVYLQMNSLKPEDTAVYYCNTGYSGIQYYYWGQGTQVTVSS,low polyreactivity
9,QVQLVESGGGLLQAGGSLSLSCAASGFTFIGYAMGWYRQATGKEREFVAAISWSGGRTYYADSVKGRFTISRDNAKNTVYLQMNSLKPEDTAVYYCAARGSRKPDWGLGYWGQGTQVTVSS,high polyreactivity
10,QVQLVESGGGLLQAGGSLSLSCAASGFTFNRNAMGWYRQAPGKERELVAAISWSGGSTYYADSVKGRFTISRDNAKNTVYLQMNSLKPEDTAVYYCAKGYRRVYSMDWGQGTQVTVSS,low polyreactivity
11,QVQLVESGGGLLQAGGSQSLSCAASGIISFSNTMGWYIQAPGKERELVAAIDSGGDDTYYADSVKGRFTISRDNAKNSVYLQMNCLKAEDSAVDYCAKDAFFTEIAIRDQIISHHYYWGHGTQVTVSS,low polyreactivity
12,QVQLVESGGGLLQAGVTLRLSCAPSGFTQDSYSMGWYRQAPGKERELVARIRWSGGSTYYADSVKGRFTISRDNAKNTVYLQMNSLKPEDKAVYYCAADRPYYFLPYSTYTNYDSWGQGTQVTVSS,low polyreactivity
13,QVQLVESGGGLVEAGGSHRLTCAASGSTFGWYPIGWYRQAPGTERELVAGINSRGGSTYYADSVKGRFTISRDNAQNTVYLQMNSLKPEDTAVYYCNTVWASRRAHDYWGQGTQVTVSS,high polyreactivity
14,QVQLVESGGGLVEAGGSLRLRCAASGISYRYYAMGWYRQAPGKERELVAAITYRGGTTYYADSVKGRFKISRDKEKNTVYLQMNSLKPEDTAVYYCATDVNSYGYYYWGQGTQVTVSS,high polyreactivity
15,QVQLVESGGGLVEAGGSLRLSCAASASISGRYAMGSYRQAPGKERELVAAISWIGGSTYYADSVKGRFTISRDNAKNTVYLQMNSLKPEDTAVYYCNVTIDTRTHPLLVVFYGYDYWGQGTQVTVSS,low polyreactivity
16,QVQLVESGGGLVEAGGSLRLSCAASGGIFPVNAIGWYRQAPGKERELVATITYDGANTYYADSVKGRFTISRDNAKNTVYLQMNRLKPEDTAVYYCAKDRLSFYGYISYIGYGYDYWGQGTQVTVSS,low polyreactivity
17,QVQLVESGGGLVEAGGSLRLSCAASGRIFRKYTMGWYRQAPGKERELVAAISRNGGDTYYADSVKGRFTISRDNAKNTVYLLMNSLKPEDTAVYYCNARTPTDSTHFDYWGQGTQVSVSS,low polyreactivity
18,QVQLVESGGGLVEAGGSLRLSCAASGRIFWGNAMGWYRPAPGKERELVAAITRGGSTNYADSVKGRFTISRDNAKNTVYLQMKSLKPEDTAVYYCAARTRSRGNSWTYDYWGQGTQVTVSS,high polyreactivity
19,QVQLVESGGGLVEAGGSLRLSCAASGSIFDDYAMGWYRQAPGEERELVAAITWNGGSTYADSVKGRFTISRDNAKNTVYFQMNSLKPEDTAVYYSAADYFVYWYYGYGYWGQGTQVTVSS,low polyreactivity
20,QVQLVESGGGLVEAGGSLRLSCAASGSTFRYYAMGWYRQAPGKERELFAAITWSGGSTNYADSVKGRFTISRDNAKNTFYLQMNSLKPEDTAVYYCNARYLYRHSRYARYDSWGQGTQVTVSS,high polyreactivity
21,QVQLVESGGGLVEAGGSLRLSCAATGRTIRAYAMGWYRPEPGKERELVASISSGGSTKYADSVKGRFTISRDNAKNTVYLQMNSLKPEDTAVYFCAADRLLYGVDYWGQGTEVTVSS,low polyreactivity
22,QVQLVESGGGLVEAGGSLRLSCAAYGFIFSHNTMGCYRQAPGKERELVAGISWSGGNTYYSDSVKGRFTISRDNAKNTGYLQMNRLKPEDTAVYSFNVRFVTGYRYRYGDDYWGQGTQVTVSS,low polyreactivity

row,Sequence,polyreactivity (PSR sort gate)
1,QVQLVESGGGLVEEGGSLRLSCAASGSIFYRNDMGWYRQAPGKERELVAAISWSGGRTYYADSVKGRFTISRDNAKNTVYLQMNSLKPEDTAVYYCAAFRHRQSSDNGYDYWGQGTQVTVSS,high polyreactivity
2,QVQLVESGGGLVHAGCSLRLSCAAYGRNFYRYAMGWYRQAPGKERALVAAISGSVGSTYADTEKGRFTSSRDNAKNTVYLQMNSLKPEDTAVYYCARESYRRYGAYDYWGQGTQVTESS,low polyreactivity
3,QVQLVESGGGLVHAGGILRLSCAASGRTFRYYTMGWYRQEPGKERELVAAISSGGGNTYYADSVKGRFTISRDNAKNTVYLQMNSLKPEDTAVYYCAVPWYTRESGAYDYWGQGSQVTVSS,high polyreactivity
4,QVQLVESGGGLVHAGGRLRLSCAASGRTFGFYTMGWYRQPPGKERELVAGISRGGSTTYADSVKGRFTISRDNAKNTVYLQMNSLKPEDTAVYYCNADRSHYWLPYGVRFDYWGQGSQVTVSS,low polyreactivity
5,QVQLVESGGGLVHAGGRLRLSCAASGRTFGPYVMGWYRQSPGKERELVASISSADSTYYADSVKVRFTFSRDNAKNTFYLQMNSLKPEDTAVYYCAAEWYDYLYRMDYWGQGTQVTVSS,low polyreactivity
6,QVQLVESGGGLVHAGGRLRLSCAASGSTFSPYAMGWYRQPPGKERELVAAITRSGGRTYYADSVKGRFTISRDNAKNTVYLQMNSLKPEDTAVYYCAARNYKPYGYYRIYDSWGQGTQVTVSS,high polyreactivity
7,QVQLVESGGGLVHAGGSIRLSCAASGRIFDSNAMGRYRQAPGKEREVVAAITYSGGGTFYADSVKGRFTSSRDNAKNTVYLQMNCLKPEDTAVYYCNKLPHYFGPVYWFKGDDGYWGQGTQVTVTS,high polyreactivity
8,QVQLVESGGGLVHAGGSLLLSCDATGISLVRYSMGWYRQAPGKELELVAAISGSGGSTRYADSVKGRFTISRDNAKNTVYLQMNSMIPEDSAVYYCAARGAGPLDNHYSWGQGKQVTVSS,high polyreactivity
9,QVQLVESGGGLVHAGGSLRLSCAASAFIFLFYTMGSYRQAPGKERELVAAITSVGNTNYADSVKGRFSISRDNAKNTVFLQINSLKPEDTAVYYCAADTTDPGGAYQLMDYWGQGTQVTLSS,low polyreactivity
10,QVQLVESGGGLVHAGGSLRLSCAASGFIFDTYLMGRYRQAPGTERELVAAISRTGGRTYYADSVKGRFTISRDNAKYTVYLQMNSLNPEDTAVYYCNRAPHIAPEDYDYWGQGTQVTVSS,high polyreactivity
11,QVQLVESGGGLVHAGGSLRLSCAASGFTFAQNAMGWYRQATGKEREWVAAITRSGARTYYADSVKGRFTISRDNAKNTVYLLMNSLKPEDTPVYYCNRDASRKYGYWGQGTQVTVSS,high polyreactivity
12,QVQLVESGGGLVHAGGSLRLSCAASGFTFGNAMGWYRQAPGKERELVAAITVNGGTTNYADSVKGRFTISRDNAKNTVYLQMNSLKPEDTAVYSCNVDTSYGPAGDYWGQGTQVTVSS,low polyreactivity
13,QVQLVESGGGLVHAGGSLRLSCAASGFTFGTYAMGWYRQAPGKEMELVSAISWKGGSTFYADSVKGRFTISRDNAKNTVYLQMNSLKPEDTAVYYCSKLLRRGGHRVFTYDYWGQGTQVTVSS,high polyreactivity
14,QVQLVESGGGLVHAGGSLRLSCAASGFTFPGYAMGWYRQAPGKERELVAAISRGGAGTYYADSVKGRFTISRDNAKNTVYLQMHSLKPEDTAFYDCAAATDNPSLFQDMYYWGQGTQLTVSS,high polyreactivity
15,QVQLVESGGGLVHAGGSLRLSCAASGFTIERYAMGWYRQAAGKERELVAVISTSGGSTYYADSVNWRYTITRDNAKNSVYLQMNSLKPEDTAVYYCAKDGSSRGDYHFGWGYYYWGQGTQVTVSS,low polyreactivity
16,QVQLVESGGGLVHAGGSLRLSCAASGGIFGYYTMGWYRQAPGKERELVAAITWRGSTYYADSVKGRFTISRDNAKNTVYLQMNSLKPEDTAVYYCAARYYSPYGYWGQGTQVTVSS,high polyreactivity
17,QVQLVESGGGLVHAGGSLRLSCAASGGNFGKYAMGGYRQAPGKERELVAAITWNGGRTYYADSVKGRFTLSRDNAKNTVYLQMNSLKPEDSAVNYCNARNSHRYVYWGQGTQVTVSS,high polyreactivity
18,QVQLVESGGGLVHAGGSLRLSCAASGITFVRYMGWYRQAPGKERELVAAISASGGSTYYADSVKGRFTISRDNAKNTVYLQLNCLKPEDTAVYYCRFLRVGSLTMDYWGQGSQVTVSS,high polyreactivity
19,QVQLVESGGGLVHAGGSLRLSCAASGITFYEYTMGWYRQAPGKERELVADIDFSGDSTYYSDSVKGRFTISRDYAKNTVYLQMNSLKPEDTAVYYCAVEIIYWWYIYEYWGQGSQVTVSS,high polyreactivity
20,QVQLVESGGGLVHAGGSLRLSCAASGLTFYYYDMGWYRQAPGKERELVAAITRRGGSTYYADSVKGRFTISRDNAKNTVYLQMNSLKPEDTAVYYCNALSRTVSHEADDYWGQGTHVTVSS,high polyreactivity
21,QVQLVESGGGLVHAGGSLRLSCAASGNTYLYYGLGWYRQAPVKEREMVAAITQSGGTTYYADSVKGRFTISRDNAKNTVYLQMNSLTPEDTAVYYCAATRYYYYWYVYDDRGDYWGQGTQVTVSS,low polyreactivity

# — the nanobody polyreactivity screen of Harvey et al. (2022)
